The values that follow come from publication PMC4605325, “The STAT3 HIES mutation is a gain-of-function mutation that activates genes via AGG-element carrying promoters”.

In data set [1] the target is T1, Myc-STAT3 wild type (purified) (UniProt P40763 1-770). In words: competition; 200-fold unlabeled competitor; Pull-down: 20 mM Hepes pH 7.9, 100 mM KCl, 5 mM MgCl2, 0.1 mM EDTA, 4 mM DTT, 12% glycerol, 60 min room temperature (Fig 6D: 30 min on ice); EMSA: LightShift chemiluminescent kit, buffer not stated. The note with it: protein: recombinant; tags: Myc; chain copies: 2.

Data set [2] deals with T1, Myc-STAT3 wild type (purified). In words: EMSA; 2 ug protein, 1 nM probe; less efficient than SIE; Pull-down: 20 mM Hepes pH 7.9, 100 mM KCl, 5 mM MgCl2, 0.1 mM EDTA, 4 mM DTT, 12% glycerol, 60 min room temperature (Fig 6D: 30 min on ice); EMSA: LightShift chemiluminescent kit, buffer not stated. Particulars: protein: recombinant; tags: Myc; chain copies: 2; label: 5'-biotin. A general note: In EMSA bound probe runs differently from free probe, usually more slowly.

Data set [3] deals with Myc-STAT3 1-355 (purified) (UniProt P40763 1-355). Put plainly: pull-down; IL-6; Pull-down: 20 mM Hepes pH 7.9, 100 mM KCl, 5 mM MgCl2, 0.1 mM EDTA, 4 mM DTT, 12% glycerol, 60 min room temperature (Fig 6D: 30 min on ice); EMSA: LightShift chemiluminescent kit, buffer not stated. Particulars: protein: recombinant; tags: Myc; label: 5'-biotin.
Data set [4] has as its target Myc-STAT3 C-terminal region (purified) (UniProt P40763 465-770). Described as above. The note with it: protein: recombinant; tags: Myc; label: 5'-biotin.
For data set [5], the target named is Myc-STAT3 R382Q (purified) (UniProt P40763 1-770, R382Q). In words: pull-down; IL-6; enhanced vs WT; Pull-down: 20 mM Hepes pH 7.9, 100 mM KCl, 5 mM MgCl2, 0.1 mM EDTA, 4 mM DTT, 12% glycerol, 60 min room temperature (Fig 6D: 30 min on ice); EMSA: LightShift chemiluminescent kit, buffer not stated. The note with it: protein: recombinant; tags: Myc; chain copies: 2; label: 5'-biotin.

Data set [6] concerns the target Myc-STAT3 V461/462/463A (purified) (UniProt P40763 1-770, V461A;V462A;V463A). The data set is described as above. Particulars: protein: recombinant; tags: Myc; chain copies: 2; label: 5'-biotin.

T1 sequence (P40763 whole entry): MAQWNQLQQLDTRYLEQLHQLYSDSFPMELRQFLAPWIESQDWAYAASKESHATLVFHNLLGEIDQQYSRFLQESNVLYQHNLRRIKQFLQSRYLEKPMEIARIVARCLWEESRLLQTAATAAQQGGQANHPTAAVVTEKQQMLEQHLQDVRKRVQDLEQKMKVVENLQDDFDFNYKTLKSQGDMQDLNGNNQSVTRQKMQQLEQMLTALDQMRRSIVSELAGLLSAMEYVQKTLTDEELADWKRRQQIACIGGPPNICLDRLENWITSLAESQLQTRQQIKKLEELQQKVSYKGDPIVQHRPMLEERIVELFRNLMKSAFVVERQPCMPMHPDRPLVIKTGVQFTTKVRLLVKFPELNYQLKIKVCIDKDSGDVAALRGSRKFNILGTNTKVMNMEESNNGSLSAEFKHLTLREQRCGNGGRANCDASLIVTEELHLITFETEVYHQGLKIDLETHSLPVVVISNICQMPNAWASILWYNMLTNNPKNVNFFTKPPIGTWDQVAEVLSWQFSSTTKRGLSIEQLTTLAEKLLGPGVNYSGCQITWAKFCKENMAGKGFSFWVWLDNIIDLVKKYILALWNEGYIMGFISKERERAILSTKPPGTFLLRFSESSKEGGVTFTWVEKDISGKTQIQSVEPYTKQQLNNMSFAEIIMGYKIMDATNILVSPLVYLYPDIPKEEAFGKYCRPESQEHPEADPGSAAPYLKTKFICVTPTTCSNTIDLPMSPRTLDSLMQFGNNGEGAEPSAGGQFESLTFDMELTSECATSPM
Myc-STAT3 V461/462/463A (purified), sequence (P40763 whole entry V461A/V462A/V463A): as the sequence (P40763 whole entry) above, with V461A, V462A, V463A counted along it
Myc-STAT3 R382Q (purified), sequence (P40763 whole entry R382Q): as the sequence (P40763 whole entry) above, with R382Q counted along it
Myc-STAT3 C-terminal region (purified), sequence (P40763 465-770): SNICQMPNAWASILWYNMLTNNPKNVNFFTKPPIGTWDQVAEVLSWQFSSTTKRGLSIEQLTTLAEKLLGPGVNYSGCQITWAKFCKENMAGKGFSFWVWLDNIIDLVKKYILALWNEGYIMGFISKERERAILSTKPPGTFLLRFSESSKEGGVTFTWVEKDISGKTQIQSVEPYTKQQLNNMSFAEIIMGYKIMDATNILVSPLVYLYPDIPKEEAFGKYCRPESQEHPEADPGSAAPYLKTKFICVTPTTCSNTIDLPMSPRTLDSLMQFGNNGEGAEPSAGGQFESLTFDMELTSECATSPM
Myc-STAT3 1-355 (purified), sequence (P40763 1-355): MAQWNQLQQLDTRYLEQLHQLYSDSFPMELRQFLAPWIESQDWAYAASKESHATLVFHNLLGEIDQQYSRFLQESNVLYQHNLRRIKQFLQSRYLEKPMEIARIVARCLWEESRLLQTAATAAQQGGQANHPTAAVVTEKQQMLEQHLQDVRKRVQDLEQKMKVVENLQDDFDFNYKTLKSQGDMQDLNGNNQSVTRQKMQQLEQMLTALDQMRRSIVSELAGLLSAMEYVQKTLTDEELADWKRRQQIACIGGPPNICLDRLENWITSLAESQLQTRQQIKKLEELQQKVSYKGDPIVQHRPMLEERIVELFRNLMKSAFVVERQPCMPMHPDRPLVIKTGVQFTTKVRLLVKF

B1: AGG oligo, unlabeled (dsDNA)
DNA 1: TTTGGGAGGCCGAGGTGGG
DNA 2: CCCACCTCGGCCTCCCAAA
B1: the binding result in data set [1] was “binds”.

B2: AGG-element oligo (dsDNA)
DNA 1: TTTGGGAGGCCGAGGTGGG
DNA 2: CCCACCTCGGCCTCCCAAA
Regarding B2, the binding result in data set [2] is on record as “binds”; in data set [3], “binds”; in data set [4] it was “no binding”; in data set [5], “binds”; in data set [6], “binds”.
